Results from publication PMC12102759.

B1: MXI1 peptide 4-19 (Max-interacting protein 1), 16-mer library wild type / SIN3A PAH2 (SIN3A PAH domain, residues 295-383) (parent)
chain 1: VKMINVQRLLEAAEFL
chain 2: SLQNNQPVEFNHAINYVNKIKNRFQGQPDIYKAFLEILHTYQKEQRNAKEAGGNYTPALTEQEVYAQVARLFKNQEDLLSEFGQFLPDA
B2: PIP5K1C peptide 642-657 (Phosphatidylinositol 4-phosphate 5-kinase type-1 gamma), 16-mer library wild type / TLN1 PTB (TLN1 Phosphotyrosine-binding (PTB) domain, residues 309-401) (parent)
chain 1: TDERSWVYSPLHYSAQ
chain 2: GVSFFLVKEKMKGKNKLVPRLLGITKECVMRVDEKTKEVIQEWNLTNIKRWAASPKSFTLDFGDYQDGYYSVQTTEGEQIAQLIAGYIDIILK
B3: AMOTL2 peptide 64-79 (Angiomotin-like protein 2), 16-mer library wild type / TNKS ANK (TNKS 12 ANK repeats, residues 174-649) (parent)
chain 1: QVLQQATRQEPQGQEH
chain 2: TGVPAVSGALRELLEACRNGDVSRVKRLVDAANVNAKDMAGRKSSPLHFAAGFGRKDVVEHLLQMGANVHARDDGGLIPLHNACSFGHAEVVSLLLCQGADPNARDNWNYTPLHEAAIKGKIDVCIVLLQHGADPNIRNTDGKSALDLADPSAKAVLTGEYKKDELLEAARSGNEEKLMALLTPLNVNCHASDGRKSTPLHLAAGYNRVRIVQLLLQHGADVHAKDKGGLVPLHNACSYGHYEVTELLLKHGACVNAMDLWQFTPLHEAASKNRVEVCSLLLSHGADPTLVNCHGKSAVDMAPTPELRERLTYEFKGHSLLQAAREADLAKVKKTLALEIINFKQPQSHETALHCAVASLHPKRKQVTELLLRKGANVNEKNKDFMTPLHVAAERAHNDVMEVLHKHGAKMNALDTLGQTALHRAALAGHLQTCRLLLSYGSDPSIISLQGFTAAQMGNEAVQQILSESTPIRTSD
B4: ATXN2 peptide 913-928 (Ataxin-2), 16-mer library wild type / PABPC1 PABC (PABPC1 PABC domain, residues 544-623) (parent)
chain 1: TLNPNAKEFNPRSFSQ
chain 2: PLTASMLASAPPQEQKQMLGERLFPLIQAMHPTLAGKITGMLLEIDNSELLHMLESPESLRSKVDEAVAVLQAHQAKEAA
B5: PEX5 peptide 110-125 (Peroxisomal targeting signal 1 receptor), 16-mer library wild type / PEX14 Pex14 (PEX14 PEX14, residues 16-84) (parent)
chain 1: ADLALSENWAQEFLAA
chain 2: TPGSENVLPREPLIATAVKFLQNSRVRQSPLATRRAFLKKKGLTDEEIDMAFQQSGTAADEPSSLGPAT

Variants of: B1
Test: proteomic peptide phage display deep mutational scan (ProP-PD DMS): M13 P8 16-mer library selected against immobilised GST-tagged bait for four days (rounds), NGS of the eluted pools per day and pseudo-replica
Settings: with SIN3A PAH2 (SIN3A PAH domain, residues 295-383); bait immobilised on MaxiSorp plates (10 µg), library pre-cleared on GST, 2 h binding at 4 °C, five washes; one round per day, days 1-4; value from days 2 and 3; keep out of graded; scale: average fractional NGS count over selection days 2 and 3

Variant | screen value
chain 1 L9M | 0
chain 1 L9T | 0
chain 1 N5W | 0.00143
chain 1 N5L | 0.00022
chain 1 N5F | 0.000135

Further lines, results first:

screen value | Variant
0.00165 | chain 1 L9I
0.000204 | chain 1 N5T
0.0011 | chain 1 N5M
0.000565 | chain 1 N5G

Variants of: B2
Test: as above
Settings: with TLN1 PTB (TLN1 Phosphotyrosine-binding (PTB) domain, residues 309-401); bait immobilised on MaxiSorp plates (10 µg), library pre-cleared on GST, 2 h binding at 4 °C, five washes; one round per day, days 1-4; value from days 2 and 3; keep out of graded; scale: average fractional NGS count over selection days 2 and 3

Variant | screen value
chain 1 R4I | 3.79e-05
chain 1 D2K | 0.000108
chain 1 S9V | 3.45e-05
chain 1 S9W | 0
chain 1 S9E | 6.87e-05
chain 1 S9L | 0
chain 1 S9Q | 4.86e-05
chain 1 P10W | 8.28e-05
chain 1 W6G | 3.45e-05
chain 1 W6A | 2.49e-05
chain 1 W6H | 0
chain 1 W6D | 0
chain 1 L11Q | 2.8e-05
chain 1 L11K | 8.99e-05
chain 1 L11D | 0
chain 1 L11S | 3.05e-05

Further lines, results first:

screen value | Variant
5.79e-05 | chain 1 S9Y
0 | chain 1 S9K
0 | chain 1 A15K
9.95e-05 | chain 1 A15Y
0 | chain 1 W6Q
8.93e-05 | chain 1 L11N

Variants of: B3
Test: as above
Settings: with TNKS ANK (TNKS 12 ANK repeats, residues 174-649); bait immobilised on MaxiSorp plates (10 µg), library pre-cleared on GST, 2 h binding at 4 °C, five washes; one round per day, days 1-4; value from days 2 and 3; keep out of graded; scale: average fractional NGS count over selection days 2 and 3

Variant | screen value
chain 1 H16G | 6.49e-05
chain 1 H16K | 8.3e-05
chain 1 H16F | 7.99e-05
chain 1 R8I | 0
chain 1 R8F | 0
chain 1 Q5W | 6.13e-05
chain 1 T7K | 7.17e-05
chain 1 T7D | 6.07e-05
chain 1 T7R | 0
chain 1 Q9I | 5.19e-05
chain 1 Q9G | 7.98e-05
chain 1 G13I | 0
chain 1 E15K | 0
chain 1 E15G | 6.84e-05
chain 1 Q12R | 4.06e-05
chain 1 A6K | 7.72e-05
chain 1 E10D | 9.35e-05
chain 1 E10W | 7.2e-05
chain 1 P11D | 0
chain 1 P11G | 0.000112
chain 1 L3W | 8.89e-05

Other lines, results leading:

screen value | Variant
8.36e-05 | chain 1 R8P
2.86e-05 | chain 1 Q5G
0.000115 | chain 1 Q5D
8.23e-05 | chain 1 Q5N
4.55e-05 | chain 1 Q9K
0 | chain 1 G13W
0 | chain 1 G13Q
5.93e-05 | chain 1 Q12K
4.91e-05 | chain 1 A6P
5.3e-05 | chain 1 A6Y
0.000146 | chain 1 Q14G
3.1e-05 | chain 1 Q14F
7.98e-05 | chain 1 E10R
0 | chain 1 P11Q
5.08e-05 | chain 1 P11I
0 | chain 1 P11R

Variants of: B4
Test: as above
Settings: with PABPC1 PABC (PABPC1 PABC domain, residues 544-623); bait immobilised on MaxiSorp plates (10 µg), library pre-cleared on GST, 2 h binding at 4 °C, five washes; one round per day, days 1-4; value from days 2 and 3; scale: average fractional NGS count over selection days 2 and 3

Variant | screen value
chain 1 A6P | 0
chain 1 N3H | 0
chain 1 N3A | 0
chain 1 L2D | 0
chain 1 E8I | 0.000142
chain 1 E8D | 0
chain 1 K7M | 3.88e-05
chain 1 K7E | 0.000169
chain 1 K7R | 0.000217
chain 1 F9Q | 0
chain 1 F9A | 0
chain 1 F9G | 0
chain 1 F9Y | 0.000112

Other lines, results leading:

screen value | Variant
0.000105 | chain 1 A6I
0 | chain 1 E8L
0.000127 | chain 1 F14T
0.000335 | chain 1 F14D
8.48e-05 | chain 1 F14S

Variants of: B5
Test: as above
Settings: with PEX14 Pex14 (PEX14 PEX14, residues 16-84); bait immobilised on MaxiSorp plates (10 µg), library pre-cleared on GST, 2 h binding at 4 °C, five washes; one round per day, days 1-4; value from days 2 and 3; scale: average fractional NGS count over selection days 2 and 3

Variant | screen value
chain 1 Q11P | 0
chain 1 Q11G | 0.000317
chain 1 Q11T | 0.000165
chain 1 Q11I | 0.000186
chain 1 E12K | 0.000191
chain 1 E12Q | 0.000147
chain 1 E12D | 0.000116
chain 1 E12R | 9.56e-05
chain 1 E12A | 0.000448
chain 1 F13K | 0
chain 1 F13G | 0
chain 1 F13P | 0
chain 1 F13S | 9.56e-05
chain 1 E7Q | 0.000175
chain 1 A1V | 0.000338
chain 1 A1L | 0.000249
chain 1 A1R | 0.00015
chain 1 A1H | 0
chain 1 L5D | 0

Variant | screen value
chain 1 L5N | 9.07e-05
chain 1 L5R | 0.000218
chain 1 A4Y | 0.000159
chain 1 A4G | 0
chain 1 A4D | 0.000198
chain 1 A4S | 9.07e-05
chain 1 A4E | 0.000166
chain 1 N8T | 0.000134
chain 1 L3S | 0.000293
chain 1 L3R | 0
chain 1 L3E | 0.000345
chain 1 A15Q | 0
chain 1 A15E | 0.000302
chain 1 A15Y | 9.07e-05
chain 1 A15N | 0.000268
chain 1 A15S | 0
chain 1 S6T | 0
chain 1 S6M | 0.000156
chain 1 S6W | 0

Variant | screen value
chain 1 S6Y | 0.000301
chain 1 D2I | 0.000253
chain 1 D2S | 0
chain 1 D2F | 0
chain 1 D2M | 0.000156
chain 1 L14M | 9.56e-05
chain 1 L14H | 0.000116
chain 1 L14A | 0.000388
chain 1 L14W | 0.000163
chain 1 A10P | 0.000417
chain 1 A10D | 0
chain 1 A10Q | 0
chain 1 A10S | 0.000299
chain 1 A10M | 0
chain 1 W9Q | 0
chain 1 W9G | 0
chain 1 W9P | 0
chain 1 W9L | 0

Further lines, results first:

screen value | Variant
0 | chain 1 Q11K
0 | chain 1 E12N
0.000183 | chain 1 F13L
0.0002 | chain 1 F13T
0 | chain 1 A1W
0.00027 | chain 1 A1K
9.07e-05 | chain 1 L5I
0 | chain 1 L5E
0.000301 | chain 1 L5F
0.000358 | chain 1 A4M
0 | chain 1 N8R
7.71e-05 | chain 1 N8K
0.000147 | chain 1 N8Y
0.000442 | chain 1 L3V
9.87e-05 | chain 1 A15G
0.000397 | chain 1 A15T
0.000313 | chain 1 S6I
0.000293 | chain 1 S6A
0.000407 | chain 1 D2V
0.000331 | chain 1 D2G
0 | chain 1 L14G
0.000118 | chain 1 A10N
5.43e-05 | chain 1 W9M
0 | chain 1 W9Y
0 | chain 1 W9T
